Measured values: article PMC9482650, “Quantitative fragmentomics allow affinity mapping of interactomes” (Nature Communications, 2022)
Each block holds one binder with its values, some of them ahead of it.

What was measured:
Experiment in all cases: holdup assay
Parameters in all cases: key: below the threshold = too weak to quantify, mostly under pKd 3.1 to 4
DFNB31_3, Q9P202 = target: T1, DFNB31_3, Q9P202
T1 sequence (Q9P202 811-907, limits assumed, looked up): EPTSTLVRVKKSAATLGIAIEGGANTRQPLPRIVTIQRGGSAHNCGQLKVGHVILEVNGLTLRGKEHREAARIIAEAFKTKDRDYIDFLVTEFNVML

LNX2_2, Q8N448 = target: T2, LNX2_2, Q8N448
T2 sequence (Q8N448 334-432, limits assumed, looked up): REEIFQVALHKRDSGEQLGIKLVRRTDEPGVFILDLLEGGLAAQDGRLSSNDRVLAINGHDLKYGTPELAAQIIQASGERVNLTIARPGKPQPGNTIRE

SCRIB_1, Q14160 = target: SCRIB_1, Q14160
SCRIB_1, Q14160, sequence (Q14160 718-814): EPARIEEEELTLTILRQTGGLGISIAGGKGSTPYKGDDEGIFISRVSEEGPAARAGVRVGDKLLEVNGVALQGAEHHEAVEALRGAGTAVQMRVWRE

NHERF4_2, Q86UT5 = target: NHERF4_2, Q86UT5
NHERF4_2, Q86UT5, sequence (Q86UT5 220-308): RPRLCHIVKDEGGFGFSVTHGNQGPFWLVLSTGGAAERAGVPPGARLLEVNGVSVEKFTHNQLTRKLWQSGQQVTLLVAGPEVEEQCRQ

SHANK1, Q9Y566 = target: T3, SHANK1, Q9Y566
T3 sequence (Q9Y566 658-767, limits assumed, looked up): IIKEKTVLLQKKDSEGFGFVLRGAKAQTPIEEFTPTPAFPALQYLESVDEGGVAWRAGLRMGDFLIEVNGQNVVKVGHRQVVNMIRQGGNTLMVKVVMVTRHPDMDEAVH

PDZRN4_1, Q6ZMN7 = target: PDZRN4_1, Q6ZMN7
PDZRN4_1, Q6ZMN7, sequence (Q6ZMN7 213-318): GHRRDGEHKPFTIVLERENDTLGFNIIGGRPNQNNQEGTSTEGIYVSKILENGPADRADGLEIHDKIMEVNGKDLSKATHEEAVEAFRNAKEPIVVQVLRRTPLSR

MAGI1_2, Q96QZ7 = target: MAGI1_2, Q96QZ7
MAGI1_2, Q96QZ7, sequence (Q96QZ7 456-580): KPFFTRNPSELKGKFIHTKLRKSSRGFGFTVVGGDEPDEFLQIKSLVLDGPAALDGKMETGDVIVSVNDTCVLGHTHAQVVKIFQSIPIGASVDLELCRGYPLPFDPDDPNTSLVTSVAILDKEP

RHPN1, Q8TCX5 = target: T4, RHPN1, Q8TCX5
T4 sequence (Q8TCX5 508-602, limits assumed, looked up): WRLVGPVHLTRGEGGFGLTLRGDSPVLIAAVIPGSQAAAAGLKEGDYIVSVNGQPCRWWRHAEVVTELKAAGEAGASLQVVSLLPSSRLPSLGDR

MAGI2_3, Q86UL8 = target: MAGI2_3, Q86UL8
MAGI2_3, Q86UL8, sequence (Q86UL8 600-682): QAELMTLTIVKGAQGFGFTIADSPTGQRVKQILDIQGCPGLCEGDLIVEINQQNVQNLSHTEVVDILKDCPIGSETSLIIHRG

SNTG1, Q9NSN8 = target: T5, SNTG1, Q9NSN8
T5 sequence (Q9NSN8 52-150, limits assumed, looked up): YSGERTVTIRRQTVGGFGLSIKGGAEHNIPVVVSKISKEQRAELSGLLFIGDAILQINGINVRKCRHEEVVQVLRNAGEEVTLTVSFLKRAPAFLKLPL

GORASP2, Q9H8Y8 = target: GORASP2, Q9H8Y8
Inadl_8, Q8NI35 = target: Inadl_8, Q8NI35
Inadl_8, Q8NI35, sequence (Q8NI35 1425-1530): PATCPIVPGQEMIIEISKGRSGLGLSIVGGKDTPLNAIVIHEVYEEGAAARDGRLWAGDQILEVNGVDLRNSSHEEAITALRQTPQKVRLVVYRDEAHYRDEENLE

MPP2, Q14168 = target: T6, MPP2, Q14168
T6 sequence (Q14168 180-250, limits assumed, looked up): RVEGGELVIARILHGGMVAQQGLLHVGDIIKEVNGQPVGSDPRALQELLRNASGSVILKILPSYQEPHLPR

SYNJ2BP, P57105 = target: T7, SYNJ2BP, P57105
T7 sequence (P57105 8-110, limits assumed, looked up): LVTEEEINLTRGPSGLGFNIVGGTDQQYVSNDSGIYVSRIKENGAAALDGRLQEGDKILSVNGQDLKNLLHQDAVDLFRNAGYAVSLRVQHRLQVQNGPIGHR

TJP1_2, Q07157 = target: TJP1_2, Q07157
TJP1_2, Q07157, sequence (Q07157 181-274): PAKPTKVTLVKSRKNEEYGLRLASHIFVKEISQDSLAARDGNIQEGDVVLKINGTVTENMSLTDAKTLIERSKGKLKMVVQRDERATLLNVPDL

DLG3_2, Q92796 = target: T8, DLG3_2, Q92796
T8 sequence (Q92796 221-321, limits assumed, looked up): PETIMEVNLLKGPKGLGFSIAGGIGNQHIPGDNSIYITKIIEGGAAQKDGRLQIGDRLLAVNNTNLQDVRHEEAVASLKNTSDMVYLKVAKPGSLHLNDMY

DLG4_2, P78352 = target: DLG4_2, P78352
DLG4_2, P78352, sequence (P78352 155-259): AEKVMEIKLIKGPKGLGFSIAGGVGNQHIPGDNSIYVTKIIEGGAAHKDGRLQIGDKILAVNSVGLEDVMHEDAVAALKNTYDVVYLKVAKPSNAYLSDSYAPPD

FRMPD3, Q5JV73 = target: FRMPD3, Q5JV73
FRMPD3, Q5JV73, sequence (Q5JV73 12-100): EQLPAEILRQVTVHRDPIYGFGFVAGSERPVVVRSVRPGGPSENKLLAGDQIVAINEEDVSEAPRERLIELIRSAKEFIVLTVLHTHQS

PTPN3, P26045 = target: PTPN3, P26045
PTPN3, P26045, sequence (P26045 505-587): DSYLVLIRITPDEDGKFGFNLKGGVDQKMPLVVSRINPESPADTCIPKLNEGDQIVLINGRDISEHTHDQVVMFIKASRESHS

GORASP1, Q9BQQ3 = target: GORASP1, Q9BQQ3
GORASP1, Q9BQQ3, sequence (Q9BQQ3 1-208): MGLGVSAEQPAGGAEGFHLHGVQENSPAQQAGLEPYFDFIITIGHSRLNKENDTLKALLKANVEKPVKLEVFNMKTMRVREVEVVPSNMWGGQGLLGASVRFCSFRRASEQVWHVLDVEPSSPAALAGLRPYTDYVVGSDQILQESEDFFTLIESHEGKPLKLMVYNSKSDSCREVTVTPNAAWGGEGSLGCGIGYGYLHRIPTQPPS

MAST1, Q9Y2H9 = target: MAST1, Q9Y2H9
MAST1, Q9Y2H9, sequence (Q9Y2H9 962-1065): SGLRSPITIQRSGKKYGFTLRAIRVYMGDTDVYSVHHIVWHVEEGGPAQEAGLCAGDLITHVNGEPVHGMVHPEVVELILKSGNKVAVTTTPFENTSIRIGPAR

LNX1_1, Q8TBB1 = target: LNX1_1, Q8TBB1
LNX1_1, Q8TBB1, sequence (Q8TBB1 261-371): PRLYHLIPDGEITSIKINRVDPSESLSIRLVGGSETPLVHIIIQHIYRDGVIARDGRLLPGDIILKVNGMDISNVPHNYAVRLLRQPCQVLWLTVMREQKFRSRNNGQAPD

NHERF3_1, Q5T2W1 = target: T9, NHERF3_1, Q5T2W1
T9 sequence (Q5T2W1 4-100, limits assumed, looked up): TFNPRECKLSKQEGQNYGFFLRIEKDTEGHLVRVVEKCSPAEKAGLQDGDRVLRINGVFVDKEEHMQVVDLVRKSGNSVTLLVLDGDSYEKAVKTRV

LIN7C, Q9NUP9 = target: T10, LIN7C, Q9NUP9
T10 sequence (Q9NUP9 88-185, limits assumed, looked up): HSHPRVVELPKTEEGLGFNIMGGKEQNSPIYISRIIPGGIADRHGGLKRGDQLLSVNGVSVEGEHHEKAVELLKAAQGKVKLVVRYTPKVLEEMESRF

DLG4_1, P78352 = target: DLG4_1, P78352
DLG4_1, P78352, sequence (P78352 62-152): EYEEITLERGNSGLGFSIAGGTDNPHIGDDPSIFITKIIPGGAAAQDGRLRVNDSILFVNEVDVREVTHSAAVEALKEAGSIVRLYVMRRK

NHERF3_4, Q5T2W1 = target: T11, NHERF3_4, Q5T2W1
T11 sequence (Q5T2W1 373-468, limits assumed, looked up): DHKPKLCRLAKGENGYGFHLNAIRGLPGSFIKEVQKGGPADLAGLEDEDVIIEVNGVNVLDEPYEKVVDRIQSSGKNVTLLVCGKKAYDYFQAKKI

NHERF2_2, Q15599 = target: NHERF2_2, Q15599
NHERF2_2, Q15599, sequence (Q15599 142-238): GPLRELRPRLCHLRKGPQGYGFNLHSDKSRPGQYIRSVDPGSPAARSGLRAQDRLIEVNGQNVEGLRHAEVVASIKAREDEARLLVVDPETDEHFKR

[1] = plain residues with an end cap or a label only (N-terminal biotin on a linker: ado-ado)
[2] = plain residues with an end cap or a label only (N-terminal biotin on a linker: ttds)
[3] = plain residues with an end cap or a label only (N-terminal biotin on a linker: ahx)

pKd (DFNB31_3, Q9P202; [1]): 3.86 | pKd (LNX2_2, Q8N448; [1]): below the threshold | pKd (SCRIB_1, Q14160; [1]): 4.21 | pKd (NHERF4_2, Q86UT5; [1]): below the threshold | pKd (SHANK1, Q9Y566; [1]): 4.55 | pKd (PDZRN4_1, Q6ZMN7; [1]): 4.13 | pKd (MAGI1_2, Q96QZ7; [1]): below the threshold | pKd (RHPN1, Q8TCX5; [1]): 4.19 | pKd (MAGI2_3, Q86UL8; [1]): below the threshold | pKd (SNTG1, Q9NSN8; [1]): 3.59 | pKd (GORASP2, Q9H8Y8; [1]): below the threshold | pKd (Inadl_8, Q8NI35; [1]): below the threshold | pKd (MPP2, Q14168; [1]): below the threshold | pKd (SYNJ2BP, P57105; [1]): 4.18 | pKd (TJP1_2, Q07157; [1]): below the threshold | pKd (DLG3_2, Q92796; [1]): 4.38 | pKd (DLG4_2, P78352; [1]): 4 | pKd (FRMPD3, Q5JV73; [1]): below the threshold | pKd (PTPN3, P26045; [1]): 4.94 | pKd (GORASP1, Q9BQQ3; [1]): below the threshold | pKd (MAST1, Q9Y2H9; [1]): 3.53 | pKd (LNX1_1, Q8TBB1; [1]): 3.8 | pKd (NHERF3_1, Q5T2W1; [1]): 4.72 | pKd (LIN7C, Q9NUP9; [1]): below the threshold | pKd (DLG4_1, P78352; [1]): below the threshold | pKd (NHERF3_4, Q5T2W1; [1]): 4.48 | pKd (NHERF2_2, Q15599; [1]): 4.63
Binder: EEPEERHTEL [CES2, O00748]

pKd (DFNB31_3, Q9P202; [2]): below the threshold | pKd (LNX2_2, Q8N448; [2]): below the threshold | pKd (SCRIB_1, Q14160; [2]): 5.18 | pKd (NHERF4_2, Q86UT5; [2]): below the threshold | pKd (SHANK1, Q9Y566; [2]): below the threshold | pKd (PDZRN4_1, Q6ZMN7; [2]): below the threshold | pKd (MAGI1_2, Q96QZ7; [2]): below the threshold | pKd (RHPN1, Q8TCX5; [2]): below the threshold | pKd (MAGI2_3, Q86UL8; [2]): below the threshold | pKd (SNTG1, Q9NSN8; [2]): 3.99 | pKd (GORASP2, Q9H8Y8; [2]): below the threshold | pKd (Inadl_8, Q8NI35; [2]): below the threshold | pKd (MPP2, Q14168; [2]): below the threshold | pKd (SYNJ2BP, P57105; [2]): 4.32 | pKd (TJP1_2, Q07157; [2]): below the threshold | pKd (DLG3_2, Q92796; [2]): below the threshold | pKd (DLG4_2, P78352; [2]): 3.5 | pKd (FRMPD3, Q5JV73; [2]): below the threshold | pKd (PTPN3, P26045; [2]): 4.25 | pKd (GORASP1, Q9BQQ3; [2]): below the threshold | pKd (MAST1, Q9Y2H9; [2]): below the threshold | pKd (LNX1_1, Q8TBB1; [2]): below the threshold | pKd (NHERF3_1, Q5T2W1; [2]): 3.63 | pKd (LIN7C, Q9NUP9; [2]): below the threshold | pKd (DLG4_1, P78352; [2]): below the threshold | pKd (NHERF3_4, Q5T2W1; [2]): below the threshold | pKd (NHERF2_2, Q15599; [2]): below the threshold
Binder: GGPKEEESPV [SLC16A1, P53985]

pKd (DFNB31_3, Q9P202; [3]): below the threshold | pKd (LNX2_2, Q8N448; [3]): 5.07 | pKd (SCRIB_1, Q14160; [3]): 4.11 | pKd (NHERF4_2, Q86UT5; [3]): below the threshold | pKd (SHANK1, Q9Y566; [3]): 3.57 | pKd (PDZRN4_1, Q6ZMN7; [3]): 3.67 | pKd (MAGI1_2, Q96QZ7; [3]): 3.84 | pKd (RHPN1, Q8TCX5; [3]): 4.59 | pKd (MAGI2_3, Q86UL8; [3]): 3.77 | pKd (SNTG1, Q9NSN8; [3]): 4.7 | pKd (GORASP2, Q9H8Y8; [3]): 4.3 | pKd (Inadl_8, Q8NI35; [3]): 3.65 | pKd (MPP2, Q14168; [3]): below the threshold | pKd (SYNJ2BP, P57105; [3]): 4.14 | pKd (TJP1_2, Q07157; [3]): 3.5 | pKd (DLG3_2, Q92796; [3]): 4.8 | pKd (DLG4_2, P78352; [3]): 4.66 | pKd (FRMPD3, Q5JV73; [3]): below the threshold | pKd (PTPN3, P26045; [3]): 4.19 | pKd (GORASP1, Q9BQQ3; [3]): 4.15 | pKd (MAST1, Q9Y2H9; [3]): 4.3 | pKd (LNX1_1, Q8TBB1; [3]): 4.17 | pKd (NHERF3_1, Q5T2W1; [3]): 4.07 | pKd (LIN7C, Q9NUP9; [3]): 3.88 | pKd (DLG4_1, P78352; [3]): 4.68 | pKd (NHERF3_4, Q5T2W1; [3]): 3.52 | pKd (NHERF2_2, Q15599; [3]): below the threshold
Binder: QGRWDHETIV [TMEM215, Q68D42]
